Assay results taken from paper PMC12173945, “Import mechanism of peroxisomal proteins with an N-terminal signal sequence” (Nature Cell Biology, 2025).

B1: GST-tagged wild-type yeast PEX39 (GST–PEX39) [yeast] / yeast PEX7 [yeast (S. cerevisiae)] (parent complex)
chain 1: MAAGGELSYEELLDHILNNKPIPNIVEVPNVTLDEGLASTPSLRPRPRPWEGQLQHQSHQGSLDKPNISLDIDQESLEGMTSLTRLSECYDIQSKLQINDSDNDNDDNNNDNNKGDGNDDDNNTVTANPTAR
chain 2: MLRYHMQGFSGYGVQYSPFFDNRLAVAAGSNFGLVGNGKLFILEIDRSGRIVEVNSFLTQDCLFDLAWNESHENQVLVAQGDGTLRLFDTTFKEFPIAIFKEHEREVFSCNWNLVNRQNFLSSSWDGSIKIWSPLRKQSLMTLTPRPLEITKMVDPLNAIILKKKSFTGISKNRNCVYQAQFSPHDQNLVLSCSGNSYASLFDIRLPSGKNQNNFLVHSGLEALTCDFNKYRPYVVATGGVDNAIRIWDIRMLNKNESATIKRTVPGQLHNSSCINEIPNAHGLAIRKVTWSPHHSNILMSASYDMTCRIWRDLSNDGAKETYKTNSTDATKGSIFNFTQHSEFVFGADWSLWGKPGYVASTAWDGNLFVWNGLG

Variants of: B1
Test: bead sedimentation (GST pull-down depletion) assay, SDS-PAGE with Coomassie quantification of PEX7 left in the supernatant; 1 µM yeast PEX7; varying GST-PEX39 concentrations; 1 h; 25 °C; parent: 0.6 nM

| screen value [nM] | Variant |
| --- | --- |
| 610 | chain 1 Y9A, chain 1 L12A, chain 1 L13A, chain 1 I16A, chain 1 L17A |
